Measured values: paper PMC7889724

Target: T1, recombinant full-length GST-UVR8 (Arabidopsis), Q9FN03
T1 chain: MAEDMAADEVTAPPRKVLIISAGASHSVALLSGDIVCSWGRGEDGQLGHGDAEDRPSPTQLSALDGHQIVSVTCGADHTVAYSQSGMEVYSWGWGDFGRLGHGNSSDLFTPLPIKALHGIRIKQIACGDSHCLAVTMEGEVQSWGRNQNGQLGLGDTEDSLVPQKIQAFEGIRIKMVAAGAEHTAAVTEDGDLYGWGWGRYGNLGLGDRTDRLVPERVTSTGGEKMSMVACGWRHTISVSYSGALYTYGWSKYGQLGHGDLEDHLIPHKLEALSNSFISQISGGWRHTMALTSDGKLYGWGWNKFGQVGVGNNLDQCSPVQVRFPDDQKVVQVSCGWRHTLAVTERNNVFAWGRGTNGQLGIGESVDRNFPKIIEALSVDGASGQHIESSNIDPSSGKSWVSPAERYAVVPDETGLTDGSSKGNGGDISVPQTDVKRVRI
Assay: SDS-PAGE of non-boiled protein
Conditions: remark: other sources report otherwise

B1: recombinant full-length GST-UVR8, Q9FN03 1-440 (receptor)
chain: T1 chain
In the case of B1, the stoichiometry N is reported as 2.
